Key:
Type in all cases: cell-based, Human
H1975 cells = assay: Clonogenic (colony-formation) assay
Description: (§1) FIGS. 6A-6F illustrate that TWEAK-induced NSCLC cell survival is dependent on Mcl-1 expression. H1975 (FIG. 6A) and H2073 (FIG. 6B) cells were transfected with luciferase (siCont) or siRNAs targeting Mcl-1. Total lysates were collected 72 hours post-transfection and immunoblotted for Mcl-1 and alpha-tubulin. H1975 (FIGS. 6C and 6E) and H2073 (FIGS. 6D and 6F) cells transfected with control or siRNA constructs targeting Mcl-1 were exposed to 1 μM cisplatin for 24 hours (FIGS. 6C and 6D) or 2Gy ionizing radiation (FIGS. 6E and 6F)±pre-incubation with TWEAK (100 ng/mL). Cells were sparsely seeded into 6-well dishes and allowed to grow for 7 days prior to staining with crystal violet and colony counting. A colony was defined as containing at least 50 cells. Bars represent average of three independent wells±standard error with the non-treated (first bar) set to 1. * represents a p value <0.05 by ANOVA with Bonferroni posttest.
H1975 (FIG. 7A) and H2073 (FIG. 7B) cells were transfected with luciferase (siCont) or siRNA targeting Bcl-xL. Total lysates were collected 72 hours post-transfection and immunoblotted for Bcl-xL and alpha-tubulin. H1975 (FIGS. 7C and 7E) and H2073 (FIGS. 7D and 7F) cells transfected with control or siRNA construct targeting Bcl-xL were exposed to 1 μM cisplatin for 24 hours (FIGS. 7C and 7D) or 2Gy ionizing radiation (FIGS. 7E and 7F)±pre-incubation with TWEAK (100 ng/mL). Cells were sparsely seeded into 6-well dishes and allowed to grow for 7 days prior to staining with crystal violet and colony counting. A colony was defined as containing at least 50 cells. Bars represent average of three independent wells±standard error with the non-treated (first bar) set to 1. * represents a p value <0.05 by ANOVA with Bonferroni posttest.
H1975 (FIGS. 11A and 11B) cells were pre-incubated with TWEAK (100 ng/mL), (FIG. 11A) EU-5148 (10 μM), (FIG. 11B) ABT-737 (10 […]) or both drug and TWEAK prior to exposure to 2Gy ionizing radiation. Cells were sparsely seeded (125 cells) into 6-well dishes and allowed to grow for 7 days prior to staining with crystal violet and colony counting. A colony was defined as containing at least 50 cells. Bars represent average of three independent wells±standard error with the non-treated (first bar) set to 1. * represents a p value <0.05 by ANOVA with Bonferroni posttest.
FIGS. 12A-12C illustrate that pharmacologic inhibition of Mcl-1 abrogates TWEAK-mediated cell survival. […]
Observations of colony forming capacity following cytotoxic insult were performed as previously described (Franken N A, Rodermond H M, Stap J, Haveman J, van Bree C. Clonogenic assay of cells in vitro. Nat Protoc. 2006; 1:2315-9). […] Cells were then trypsinized, quantified, and equally dispersed in triplicate in 6-well cell culture dishes at 250 cells per well. […]

H2073 cells = assay: Clonogenic (colony-formation) assay
Description: as §1, with “Bars represent average of three independent wells±standard error with the non-treated (first bar) set to 1. * represents a p value <0.05 by ANOVA with Bonferroni posttest.” left out
Observations of colony forming capacity following cytotoxic insult were performed as previously described (Franken N A, Rodermond H M, Stap J, Haveman J, van Bree C. Clonogenic assay of cells in vitro. Nat Protoc. 2006; 1:2315-9). […] Cells were then trypsinized, quantified, and equally dispersed in triplicate in 6-well cell culture dishes at 250 cells per well. […] Apparent colonies were counted. […] Statistical significance, defined as a p value <0.05, was determined by ANOVA analysis with Bonferroni posttests in Graphpad Prism.

[1] = test system: cleaved-PARP in H1975 cells; assay: Cleaved-PARP immunoblot (apoptosis)
Description: FIGS. 8A and 8B illustrate that depletion of Mcl-1 abrogates TWEAK-induced protection from cell death induced by DNA damage. H1975 cells were transfected with either siRNA targeting luciferase (control) or Mcl-1. Cells were exposed to 5 uM cisplatin (FIG. 8A) or 8Gy radiation (FIG. 8B) for 0, 4 or 24 hours±pre-incubation with TWEAK (100 ng/mL). Total cell lysates were prepared and immunoblotted for cleaved-PARP (cPARP) and GAPDH as a loading control. All blots were run in duplicate.
Mcl-1, Bcl-2, Bcl-xL, phospho-p65 (Serine residue 536), Bak, GAPDH, and cleaved-PARP antibodies were obtained from Cell Signaling Technology Inc. (Beverly, Mass.), and α-tubulin antibody was obtained from Millipore (San Diego, Calif.). Human recombinant TWEAK was purchased from PeproTech (Rock Hill, N.J.), and cisplatin was obtained from TZS Chemical via BIOTANG Inc. (Waltham, Mass.). The Mcl-1-specific inhibitor EU-5148 was kindly provided by Eutropics Pharmaceuticals (Cambridge, Mass.). ABT-737 was obtained from Selleck Chemicals (Houston, Tex.). […]

[2] = test system: Mcl-1 and Bcl-xL mRNA in H1975 cells; assay: qPCR of Mcl-1 and Bcl-xL mRNA after TWEAK; conditions: H1975, TWEAK 100 ng/mL, maximal at about 6 hours
Description: (§2) FIGS. 5A and 5B illustrate that TWEAK exposure enhances Mcl-1 and Bcl-xL mRNA expression. Total RNA was collected from (FIG. 5A) H1975 and (FIG. 5B) H2073 cells treated with 100 ng/mL TWEAK for the indicated time points. mRNA expression of Mcl-1 and Bcl-xL were determined by qPCR with histone H3.3 mRNA levels used as endogenous control. Bars represent the average±standard error of triplicate qPCR reactions. * represents a p value <0.05 compared to no treatment (of the respective gene) by Student's t test. All assays were run in duplicate.
(§3) Human lung adenocarcinoma cell lines H1975 and H2073 (ATCC, Manassas, Va.) were maintained in RPMI 1640 media (Invitrogen, Carlsbad, Calif.) plus 10% heat-inactivated fetal bovine serum (FBS) in a 37° C., 5% CO2 atmosphere. […]
(§4) mRNA expression was determined by qPCR as previously described (Fortin Ensign S P, Mathews I T, Eschbacher J M, Loftus J C, Symons M H, Tran N L. The Src homology 3 domain-containing guanine nucleotide exchange factor is overexpressed in high-grade gliomas and promotes tumor necrosis factor-like weak inducer of apoptosis-fibroblast growth factor-inducible 14-induced cell migration and invasion via tumor necrosis factor receptor-associated factor 2. J Biol Chem. 2013; 288:21887-97). […]

[3] = test system: Mcl-1 and Bcl-xL mRNA in H2073 cells; assay: qPCR of Mcl-1 and Bcl-xL mRNA after TWEAK; conditions: H2073, TWEAK 100 ng/mL, maximal at about 6 hours
Description: as §2, §3, §4

[4] = test system: phosphorylated p65, Mcl-1, Bcl-xL in H2073 cells; assay: Immunoblot after TWEAK treatment; conditions: H2073, TWEAK 100 ng/mL
Description: (§5) FIGS. 4A-4C illustrate that TWEAK induces Mcl-1 in NSCLC cell lines in an NF-κB-dependent manner. Total cell lysates were prepared from serum-reduced (FIG. 4A) H1975 and (FIG. 4B) H2073 cell lines treated with TWEAK for the indicated times and immunoblotted with the indicated antibodies: Mcl-1, Bcl-xL, and phosphorylated-p65 (Ser536). Tubulin was used as a loading control. (FIG. 4C) Serum-reduced H2073 cells transfected±IkBα mutant were treated with TWEAK for 24 hours. Cells were harvested, total cell lysates were prepared and immunoblotted with the indicated antibodies to both Mcl-1 and phospho-p65. All blots were run in duplicate and tubulin was used as a loading control.
(§6) Human lung adenocarcinoma cell lines H1975 and H2073 (ATCC, Manassas, Va.) were maintained in RPMI 1640 media (Invitrogen, Carlsbad, Calif.) plus 10% heat-inactivated fetal bovine serum (FBS) in a 37° C., 5% CO2 atmosphere. SU-DHL10 (Deng J, Carlson N, Takeyama K, Dal Cin P, Shipp M, Letai A. BH3 profiling identifies three distinct classes of apoptotic blocks to predict response to ABT-737 and conventional chemotherapeutic agents. Cancer Cell. 2007; 12:171-85), Bcl-2 1863 and Mcl-1 1780 cell lines (Ryan J A, Brunelle J K, Letai A. Heightened mitochondrial priming is the basis for apoptotic hypersensitivity of CD4+CD8+ thymocytes. Proc Natl Acad Sci USA. 2010; 107:12895-900) were maintained in RPMI 1640 plus 10% FBS with 50 μM β-mercaptoethanol added to 1863 and 1780 cells. In all assays treated with TWEAK, cells were cultured in reduced serum (0.5% FBS) for 16 hours prior to stimulation with TWEAK at 100 ng/mL in RPMI+0.1% bovine serum albumin (BSA) for the indicated times.
(§7) Mcl-1, Bcl-2, Bcl-xL, phospho-p65 (Serine residue 536), Bak, GAPDH, and cleaved-PARP antibodies were obtained from Cell Signaling Technology Inc. (Beverly, Mass.), and α-tubulin antibody was obtained from Millipore (San Diego, Calif.). Human recombinant TWEAK was purchased from PeproTech (Rock Hill, N.J.), and cisplatin was obtained from TZS Chemical via BIOTANG Inc. (Waltham, Mass.). The Mcl-1-specific inhibitor EU-5148 was kindly provided by Eutropics Pharmaceuticals (Cambridge, Mass.). ABT-737 was obtained from Selleck Chemicals (Houston, Tex.). Immunoblot analysis was performed as previously described (Whitsett T G, Cheng E, Inge L, Asrani K, Jameson N M, Hostetter G, et al. Elevated expression of Fn14 in non-small cell lung cancer correlates with activated EGFR and promotes tumor cell migration and invasion. Am J Pathol. 2012; 181:111-20; Tran N L, McDonough W S, Savitch B A, Sawyer T F, Winkles J A, Berens M E. The tumor necrosis factor-like weak inducer of apoptosis (TWEAK)-fibroblast growth factor-inducible 14 (Fn14) signaling system regulates glioma cell survival via NFkB pathway activation and BCL-XL/BCL-W expression. J Biol Chem. 2005; 280:3483-92).

[5] = test system: phosphorylated p65, Mcl-1, Bcl-xL, Bcl-2 in H1975 cells; assay: Immunoblot after TWEAK treatment
Description: as §5, §6, §7

Molecule: CN(C)CC[C@H](CSc1ccccc1)Nc1ccc(S(=O)(=O)NC(=O)c2ccc(N3CCN(Cc4ccccc4-c4ccc(Cl)cc4)CC3)cc2)cc1[N+](=O)[O-] [ABT-737]
- effect on TWEAK-induced cell survival (H1975 cells; H1975, drug 10 μM plus TWEAK 100 ng/mL, 2Gy ionizing radiation): lesser effect on TWEAK-induced cell survival
- sensitivity to radiation (cell survival, colony count) (H1975 cells; H1975, drug 10 μM pre-incubation, 2Gy ionizing radiation): did sensitize H1975 cells to radiation

Molecule: N.N.[Cl][Pt][Cl] [cisplatin, reference compound]
- cell survival (colony formation) (H1975 cells; H1975, 1 μM cisplatin): significantly reduced NSCLC cell survival
- cell survival (colony formation) (H2073 cells; H2073, 1 μM cisplatin): significantly reduced NSCLC cell survival
- protein expression of cleaved-PARP ([1]; H1975, 5 uM cisplatin, 0, 4 or 24 hours): induces protein expression of cleaved-PARP over time

B1: TWEAK: Human recombinant tumor necrosis factor-like weak inducer of apoptosis, purchased from PeproTech (protein, UniProt O43508 94-249, looked up)
Tumor necrosis factor ligand …: SAPKGRKTRARRAIAAHYEVHPRPGQDGAQAGVDGTVSGWEEARINSSSPLRYNRQIGEFIVTRAGLYYLYCQVHFDEGKAVYLKLDLLVDGVLALRCLEEFSATAASSLGPQLRLCQVSGLLALRPGSSLRIRTLPWAHLKAAPFLTYFGLFQVH
- cell survival after cisplatin or radiation with TWEAK pre-treatment (H1975 cells; H1975, TWEAK 100 ng/mL, 1 μM cisplatin or 2Gy): significantly attenuated the effects of either cisplatin or radiation
- cell survival after cisplatin or radiation with TWEAK pre-treatment (H2073 cells; H2073, TWEAK 100 ng/mL, 1 μM cisplatin or 2Gy): significantly attenuated the effects of either cisplatin or radiation
- maximal increase of Mcl-1 and Bcl-xL mRNA levels [2]: 10 fold
- maximal increase of Mcl-1 and Bcl-xL mRNA levels [3]: 50 fold
- induction of cleaved-PARP with TWEAK pretreatment ([1]; H1975, TWEAK 100 ng/mL, 5 uM cisplatin or 8Gy radiation, 4 or 24 hours): completely abrogates the induction of cleaved-PARP
- phosphorylated p65 (P-p65) [4]: clear induction
- protein expression of Mcl-1 and Bcl-xL over time [4]: incremental increases
- phosphorylated p65 (P-p65) ([5]; H1975, TWEAK 100 ng/mL): clear induction
- protein expression of Mcl-1 and Bcl-xL over time ([5]; H1975, TWEAK 100 ng/mL): incremental increases
- protein expression of Bcl-2 ([5]; H1975, TWEAK exposure): up-regulated
